15 sequences from a protein production outcome set (Wang et al. 2014) can be followed below.

This data set can be described thus: label from the status in PepcDB records.
Take “MYKKNLMKLLPAVAVIIAIAAAGFQQDSEVKSTKTVQAAENELIKSDELTSLLTTAYFNDGGMKDTDEADSSILKTKKSKSKIKKAGITTGKTKALPEKSAAASGQGQGTTTTPTTSVPKGGYKDGIYQGSGTGFGGTITVQVTISGGKIASIEILSAAGETGSYFASAKGVISKMISGQTPNVDAVSGATYSSNGIIQAVQNALSKAGKGKAAKTTKKTTKKNTNTSNKTTIPVEITKPSGEVTYKDGMYTAEAEGFDGPIKVTVTIKDGKITAITNTNTDTKEYFNKAWNSIQPKILEKQAVYGVDTVIGATFSSNGILKAVQKALEQASVNVTPAPEVTVSPTPVPTTAPAPVIPDTPKVLYNDGTYTGTGIGYGGKINISVTIKDGIITEVSQTNEGETPRYFRNAWNVIQPAIIAKQSTDGIDTVSGATYSSEGILYGAKSALEQALKTSDITATPTPNPTATPEPTAAPEPTAAPEPTAAPEPTAAPEPTATPEPTATPEPTATPEPTTAPGAGYKDGSYTGTGEGFNGQVTVTINVSGGNIVSAGYDGEDDEPEFSNAWNGIYNQIMGKQSADGIDTVTDATYSSNGLIQAFQSAISQAK”: the protein production entry was “failed”.

In the case of “MYKLDHLNHNTLDESSLELHETPKGYTNVALFGLDSRDGELSGGVRSDSIMIVSINNKTGDVKIISVYRDTLLKQQDGSYEKANAAYSFGGPQEAVAMLNRNLDLDITKYASVNFNSLADIIDILGGVEVELTSEEIFWLNGYTAETSQVVGRQTHTLDENSPGVHNLDGIQAVSYTRIRYTAGDDFKRAERQRIILQKMIQKLKTAGPVKWNKILDQVLPEISTNMTTPDIMKLGLNIFRYKIGETKGFPFDITTSENVIGLEGSYAVAIGHADNVRQLHEQLFGETGYQPSDEVQQISQDVAYLTGVLEHHHHHH”, the protein production entry is “not failed”. Turning to “MYKLMIADDEPLIRRGIKQLIDLSSLQIGEIYEASTGEEALKVFEEFKPEIVLMDINMPKIDGLSVAKKIKSINPDTKIAIITGYNYFDYAQTAIKIGVEDYILKPISKSDVSEIIVKLVSSLQKERKDKEIEKVLEKITTVDTQDNIAKNNYKELIQNIIEESYTDSQFTLSVLSEKLDLSSGYLSIMFKKNFGIPFQDYLLQKRMEKAKLLLLTTELKNYEIAEQVGFEDVNYFITKFKKYYQITPKQYREMVLKNENE”, the protein production result is given as “not failed”. As to “MYKSPLTLLTLLTICFGFFDLSSALYGSSSPVVQLTASNFKSKVLNSNGVVLVEFFAPWCGHCKALTPTWEKVANILKGVATVAAIDADAHQSAAQDYGIKGFPTIKVFVPGKAPIDYQGARDAKSIANFAYKQIKGLLSDRLEGKSKPTGGGSKEKKSEPSASVELNASNFDDLVIESNELWIVEFFAPWCGHCKKLAPEWKRAAKNLQGKVKLGHVNCDVEQSIMSRFKVQGFPTILVFGPDKSSPYPYEGARSASAIESFASELVESSAGPVEVTELTGPDVMEKKCGSAAICFISFLPDILDSKAEGRNKYLEMLLSVAEKFKKQPYSFMWVAAVTQMDLEKRVNVGGYGYPAMVAMNVKKGVYAPLKSAFELQHLLEFVKDAGTGGKGNVPMNGTPEIVKTKEWDGKDGELIEEDEFSLDELMGGDDAVGSKDEL”, the protein production entry is reported as “failed”. For “MYKVGIVLFDDFTDVDFFLMNDLLGRTSDSWTVRILGTKPEHHSQLGMTVKTDGHVSEVKEQDVVLITSGYRGIPAALQDENFMSALKLDPSRQLIGSICAGSFVLHELGLLKGKKLTTNPDAKAVLQGMGGDVQDLPLVIEGNIATAGGCLSLLYLVGWLAERLFDSVKRKQIQNQLIPAGQMEIFETLISETIQSAESAYEYRSACESDAESLVV”, the protein production result was “not failed”. As for “MYLLDTTSTAAISIYALLLTAYRSMQVLYARPIDGPAVAAEPVETRPLPAVDVIVPSFNEDPGILSACLASIADQDYPGELRVYVVDDGSRNREAIVRVRAFYSRDPRFSFILLPENVGKRKAQIAAIGQSSGDLVLNVDSDSTIAFDVVSKLASKMRDPEVGAVMGQLTASNSGDTWLTKLIDMEYWLACNEERAAQSRFGAVMCCCGPCAMYRRSALASLLDQYETQLFRGKPSDFGEDRHLTILMLKAGFRTEYVPDAIVATVVPDTLKPYLRQQLRWARSTFRDTFLALPLLRGLSPFLAFDAVGQNIGQLLLALSVVTGLAHLIMTATVPWWTILIIACMTIIRCSVVALHARQLRFLGFVLHTPINLFLILPLKAYALCTLSNSDWLSRYSAPEVPVSGGKQTPIQTSGRVTPDCTCSGE”, the protein production result is “failed”.

As to “MYLLRINIEGTINYGLYKYLYPALKAAEGKKSIAGLILVFNSGGGDAASSQLIHDLVKKIRKKKPVYSLALGICASGAYWIASASTKIYAIDTSLIGSIGVISIRPNVKKLMEKIGVDVMVYKSGKYKDMTSPFSEPNEEEKSVYQRLLDDIFEKFKRSVAEDRGIPSEKIDEIANGMVYSAKMAADNGLIDRIANYDDLVSDLTKEVGKRLKVKEFYIRKPLLQRLLGILEHHHHHH”, the protein production entry is listed as “failed”.

In the case of “MYLLTFKGLIYSAGGTWLNKGNLMYFGSLIFLFLVVFLIFSEQRTEKTSGLEKVSVQEAKEMIEKGDVFVLDVRTPDEFNSSHIKGATLIPLSNAFGSNLSSESLLKAHIDEVPKEKILVYCRTGRRSDTAGRMLVNAGYTQVYNMVGGIIAWTDAGYPVVSSEDTESEGSHN”, the protein production entry was “failed”. Turning to “MYNLLLTILLVLSGLLEIAIFMQPQKNPSSNVFDSSGSEALFERTKARGFEAFMQRFTAVLVFFWLAIALVLAILSSK”, the protein production result is given as “failed”. “MYNSRESILSNPVQSAIVSISFFSVVAIIIIAIYPEILSPQRKMERIDDFVVIIATLTFLFIGLSLINSFGTDNMEYTYEALNNFFQGKNPYEMVYGPHTVQPTYTLSGGVASNFIYPPFSFIVYIPIYLLIKAFNLPGYVLNAENVIFAVILGLLLYKIGKEKDDPFALFPVIFLYIITAVSIPPFYGVPIVIASTFLALSYVKKNYLGGISLALAISFSQLSWLAFPFLLIYRIRSDNVGKQFLRSSYFLSFLITLSIINIPFLAWNPVRFIGNIITLNTQLIPVGQIGLTVISYSGLYPMEPWFFTIVFGVVAIFLTYLYYQLFDYLKEIIWLFPLIISWFLWRTLTEYFFMWIPLIFTSLFRTQYKLPTIKLNFKKKIVLPLLIIFVFLASLSVYAHESYVASNPLKIDEVYTLQNTPPYTALIIKVQNTKNEPVNITLVRVSIPNNLNMVWNSTETVIPPNSSALVFAYASNSLEAINSTPFTVQVYSEYYFATYTVNSTQ”: the protein production entry is recorded as “failed”.

As for “MYPEKEYEELIKKIKTKVKEELNKNSKANVSGLNLDTAKRLADAAVKKAGEMGVNVAVAVMDIHGNMILFNRMDDSVLAAIEVAPKKAYTSAALRIPSSEVLKGGFDKLVETMEGKIAAFGGGLPVRSNGIFLGALGVSGGTSEEDIKIAEYAVNAVFG”, the protein production entry is “failed”. Consider “MYQTIEGFLQSWTYETESTQKMLDVLTDESLSQEIAPGHWTLGRVAWHIVTAIPVILSGTGLKFEGETKDYPVPTSAKTIADGYRKVNTAFVEALQSEWTDKDLTTINDFFGRPMPNSIFLMTLINHQNHHRGQMTVLMRQAGLTVPGVYGPAKEEWATAGMEAPKM”, for which the protein production result is “not failed”. “MYQVIIFALLFAGISSGFITFRIMGMRMAPHFGVLILALIATAANIMSGNVTLNYVAVALQVLTGISAYTQFLPVLRDSFQTAPLYACHLSTVTVAAVLAAASVPL”: the protein production entry is recorded as “failed”. For “MYSGAYSFVQISTAAYRISITRLEKTMESLQQQVAQLLEQQPTLLPAAMAEQLNVTEFDIVHALPEEMVAVVDGSHAQTILESLPEWGPVTTIMTIAGSIFEVKAPFPKGKVARGYYNLMGRDGELHGHLKLENISHVALVSKPFMGRESHYFGFFTAQGENAFKIYLGRDEKRELIPEQVARFKAMQQQHKQLEHHHHHH”, the protein production entry was “not failed”. Next, “MYSGFTREKSDLRTEDVEITKEPFTLLIMGIEDYATDGQNGRTDSLMFATVNPKTQKISLMSIPRDSRVPIVGKNKEDKINAAHAYGGEEMAIKTVEGFLKVPVDHYVKIDFQGFKGIVDAVGGVTVDVPFDFWERSDVDYYKKIQFKQGQQELNGEEALAYVRMRKQDPNGDYGRAARQRQLLAAVAQKLNSTSTVFKIKDLTSVVGKYIKTDIPISDGLALYKKLSGFDPSTIQTLKLEGEDKKIGGIYYFLPDPNGVEAVRNEIKKELGLEHHHHHH”: “not failed”.
